# Patent US20220010021A1 (Sanofi, published 2022)
# Residue numbers refer to the chain shown, from its start. In names and notes the source's numbering stands.
# T1: human beta-Klotho (KLB) (human, UniProt Q86Z14 53-997)
# T1 construct: Bought soluble protein; also called human KLB; ß-Klotho
# T1 sequence (looked up): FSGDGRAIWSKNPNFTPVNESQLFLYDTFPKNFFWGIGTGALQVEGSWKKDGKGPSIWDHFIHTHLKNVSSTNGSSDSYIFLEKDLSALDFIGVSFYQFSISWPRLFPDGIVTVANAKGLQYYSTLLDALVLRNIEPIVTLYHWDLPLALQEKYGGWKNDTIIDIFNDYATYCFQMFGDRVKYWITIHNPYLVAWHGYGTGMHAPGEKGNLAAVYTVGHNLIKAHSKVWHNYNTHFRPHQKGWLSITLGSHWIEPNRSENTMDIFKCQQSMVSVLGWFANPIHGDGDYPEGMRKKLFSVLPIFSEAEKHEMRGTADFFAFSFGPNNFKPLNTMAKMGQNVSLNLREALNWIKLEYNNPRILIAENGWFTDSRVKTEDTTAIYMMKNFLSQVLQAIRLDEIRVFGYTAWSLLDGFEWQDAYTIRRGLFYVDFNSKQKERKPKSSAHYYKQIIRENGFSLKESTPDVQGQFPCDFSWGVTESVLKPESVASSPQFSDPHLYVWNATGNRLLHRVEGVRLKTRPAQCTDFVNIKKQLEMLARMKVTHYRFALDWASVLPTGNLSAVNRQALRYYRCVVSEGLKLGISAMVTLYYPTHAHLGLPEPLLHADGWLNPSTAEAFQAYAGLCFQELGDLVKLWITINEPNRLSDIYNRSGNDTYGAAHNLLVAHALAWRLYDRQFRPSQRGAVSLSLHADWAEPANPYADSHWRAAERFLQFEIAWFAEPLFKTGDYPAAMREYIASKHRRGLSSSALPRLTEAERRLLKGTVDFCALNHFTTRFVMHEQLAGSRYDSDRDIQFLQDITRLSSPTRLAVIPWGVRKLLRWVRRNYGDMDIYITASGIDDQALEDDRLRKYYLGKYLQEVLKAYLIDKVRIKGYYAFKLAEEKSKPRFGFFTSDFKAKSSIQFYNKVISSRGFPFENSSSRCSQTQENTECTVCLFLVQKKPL
# T2: human beta-Klotho (KLB) (human, UniProt Q86Z14 53-997)
# T2 construct: Bought protein; also called human KLB; β-Klotho
# T2 sequence (looked up): T1 sequence (looked up)
# B1: 16H7 variant with light chain substitution D95S (antibody, human IgG4 S228P, lambda, V domains shown)
# VH: not shown
# VL: SYVLTQPPSVSVAPGQTARITCGGNNIGSESVHWYQQKPGQAPVLVVYDDSDRPSGIPERFSGSNSGNTATLTISRVEAGDEADYYCQVWDGNSSHVVFGGGTKLTVLG
# B2: 16H7 light chain variant G28A (antibody, human IgG4 S228P, lambda, V domains shown)
# VH: not shown
# VL: B1 VL with G28A, S95D
# B3: 16H7 light chain variant V98M (antibody, IgG4, V domains shown)
# VH: not shown
# VL: B1 VL with S95D, V98M
# notes: IgG4 backbone
# B4: 16H7 light chain variant E30R (antibody, V domains shown)
# VH: not shown
# VL: B1 VL with E30R, S95D
# notes: copies: 2 + 2
# B5: 16H7 light chain variant V98I (antibody, IgG4, V domains shown)
# VH: not shown
# VL: B1 VL with S95D, V98I
# notes: IgG4 backbone
# B6: 16H7 light chain variant E30L (antibody, V domains shown)
# VH: not shown
# VL: B1 VL with E30L, S95D
# notes: copies: 2 + 2
# B7: 16H7 light chain variant E30M (antibody, V domains shown)
# VH: not shown
# VL: B1 VL with E30M, S95D
# notes: copies: 2 + 2
# B8: 16H7 light chain variant E30C (antibody, V domains shown)
# VH: not shown
# VL: B1 VL with E30C, S95D
# notes: copies: 2 + 2
# B9: 16H7 light chain variant E30A (antibody, V domains shown)
# VH: not shown
# VL: B1 VL with E30A, S95D
# notes: copies: 2 + 2
# B10: 16H7 light chain variant V98C (antibody, IgG4, V domains shown)
# VH: not shown
# VL: B1 VL with S95D, V98C
# notes: IgG4 backbone
# B11: 16H7 light chain variant V98F (antibody, IgG4, V domains shown)
# VH: not shown
# VL: B1 VL with S95D, V98F
# notes: IgG4 backbone
# B12: 16H7 light chain variant V98S (antibody, IgG4, V domains shown)
# VH: not shown
# VL: B1 VL with S95D, V98S
# notes: IgG4 backbone
# B13: 16H7 light chain variant V97T (antibody, IgG4, V domains shown)
# VH: not shown
# VL: B1 VL with S95D, V97T
# notes: IgG4 backbone
# B14: 16H7 light chain variant V98P (antibody, IgG4, V domains shown)
# VH: not shown
# VL: B1 VL with S95D, V98P
# notes: IgG4 backbone
# B15: 16H7 light chain variant V98R (antibody, IgG4, V domains shown)
# VH: not shown
# VL: B1 VL with S95D, V98R
# notes: IgG4 backbone
# B16: 16H7 light chain variant V97L (antibody, IgG4, V domains shown)
# VH: not shown
# VL: B1 VL with S95D, V97L
# notes: IgG4 backbone
# B17: 16H7 light chain variant V97I (antibody, IgG4, V domains shown)
# VH: not shown
# VL: B1 VL with S95D, V97I
# notes: IgG4 backbone
# B18: 16H7 light chain variant V98N (antibody, IgG4, V domains shown)
# VH: not shown
# VL: B1 VL with S95D, V98N
# notes: IgG4 backbone
# B19: 16H7 light chain variant V97N (antibody, IgG4, V domains shown)
# VH: not shown
# VL: B1 VL with S95D, V97N
# notes: IgG4 backbone
# B20: 16H7 light chain variant V98Q (antibody, IgG4, V domains shown)
# VH: not shown
# VL: B1 VL with S95D, V98Q
# notes: IgG4 backbone
# B21: 16H7 light chain variant E30I (antibody, human IgG4 S228P, lambda, V domains shown)
# VH: not shown
# VL: B1 VL with E30I, S95D
# B22: 16H7 light chain variant E30G (antibody, human IgG4 S228P, lambda, V domains shown)
# VH: not shown
# VL: B1 VL with E30G, S95D
# B23: 16H7 light chain variant E30D (antibody, human IgG4 S228P, lambda, V domains shown)
# VH: not shown
# VL: B1 VL with E30D, S95D
# B24: 16H7 variant with light chain substitution S94K (antibody, human IgG4 S228P, lambda, V domains shown)
# VH: not shown
# VL: B1 VL with S94K, S95D
# B25: 16H7 light chain variant V97M (antibody, IgG4, V domains shown)
# VH: not shown
# VL: B1 VL with S95D, V97M
# notes: IgG4 backbone
# B26: 16H7 light chain variant V97F (antibody, IgG4, V domains shown)
# VH: not shown
# VL: B1 VL with S95D, V97F
# notes: IgG4 backbone
# B27: 16H7 light chain variant E30F (antibody, V domains shown)
# VH: not shown
# VL: B1 VL with E30F, S95D
# notes: copies: 2 + 2
# B28: 16H7 light chain variant E30Q (antibody, V domains shown)
# VH: not shown
# VL: B1 VL with E30Q, S95D
# notes: copies: 2 + 2
# B29: 16H7 light chain variant E30N (antibody, V domains shown)
# VH: not shown
# VL: B1 VL with E30N, S95D
# notes: copies: 2 + 2
# B30: 16H7 light chain variant E30S (antibody, human IgG4 S228P, lambda, V domains shown)
# VH: not shown
# VL: B1 VL with E30S, S95D
# What was measured:
# [1] = molecular target: cell surface receptor composed of the tyrosine kinase receptor FGFR1c and co-receptor beta-Klotho (KLB) (human, UniProt P11362 22-822; Q86Z14 1-1044); assay: cell-based or functional assay
# Sequence of cell surface receptor composed of the tyrosine kinase receptor FGFR1c and co-receptor beta-Klotho (KLB) (P11362 22-822, chain 1 of 2): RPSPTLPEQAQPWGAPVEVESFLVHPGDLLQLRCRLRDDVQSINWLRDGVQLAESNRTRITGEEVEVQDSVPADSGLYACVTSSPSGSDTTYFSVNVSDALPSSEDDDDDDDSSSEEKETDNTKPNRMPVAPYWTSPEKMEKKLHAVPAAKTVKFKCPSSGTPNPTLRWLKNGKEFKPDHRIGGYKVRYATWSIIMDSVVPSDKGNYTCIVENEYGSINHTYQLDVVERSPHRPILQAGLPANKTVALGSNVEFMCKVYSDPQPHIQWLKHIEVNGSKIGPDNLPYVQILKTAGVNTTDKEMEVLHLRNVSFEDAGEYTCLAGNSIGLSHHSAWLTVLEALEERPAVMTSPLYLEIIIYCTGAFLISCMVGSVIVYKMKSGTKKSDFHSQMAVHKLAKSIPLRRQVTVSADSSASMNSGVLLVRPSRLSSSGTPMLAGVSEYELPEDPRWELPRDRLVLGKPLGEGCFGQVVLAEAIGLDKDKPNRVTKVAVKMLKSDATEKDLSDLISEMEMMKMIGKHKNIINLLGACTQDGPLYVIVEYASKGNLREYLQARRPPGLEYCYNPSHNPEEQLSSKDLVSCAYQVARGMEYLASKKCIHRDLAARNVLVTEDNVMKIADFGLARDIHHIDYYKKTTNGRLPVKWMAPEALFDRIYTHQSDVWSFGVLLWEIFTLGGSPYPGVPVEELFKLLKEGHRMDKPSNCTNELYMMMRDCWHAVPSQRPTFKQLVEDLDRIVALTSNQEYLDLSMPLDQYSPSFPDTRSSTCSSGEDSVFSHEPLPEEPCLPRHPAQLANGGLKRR
# Sequence of cell surface receptor composed of the tyrosine kinase receptor FGFR1c and co-receptor beta-Klotho (KLB) (Q86Z14 whole entry, chain 2 of 2): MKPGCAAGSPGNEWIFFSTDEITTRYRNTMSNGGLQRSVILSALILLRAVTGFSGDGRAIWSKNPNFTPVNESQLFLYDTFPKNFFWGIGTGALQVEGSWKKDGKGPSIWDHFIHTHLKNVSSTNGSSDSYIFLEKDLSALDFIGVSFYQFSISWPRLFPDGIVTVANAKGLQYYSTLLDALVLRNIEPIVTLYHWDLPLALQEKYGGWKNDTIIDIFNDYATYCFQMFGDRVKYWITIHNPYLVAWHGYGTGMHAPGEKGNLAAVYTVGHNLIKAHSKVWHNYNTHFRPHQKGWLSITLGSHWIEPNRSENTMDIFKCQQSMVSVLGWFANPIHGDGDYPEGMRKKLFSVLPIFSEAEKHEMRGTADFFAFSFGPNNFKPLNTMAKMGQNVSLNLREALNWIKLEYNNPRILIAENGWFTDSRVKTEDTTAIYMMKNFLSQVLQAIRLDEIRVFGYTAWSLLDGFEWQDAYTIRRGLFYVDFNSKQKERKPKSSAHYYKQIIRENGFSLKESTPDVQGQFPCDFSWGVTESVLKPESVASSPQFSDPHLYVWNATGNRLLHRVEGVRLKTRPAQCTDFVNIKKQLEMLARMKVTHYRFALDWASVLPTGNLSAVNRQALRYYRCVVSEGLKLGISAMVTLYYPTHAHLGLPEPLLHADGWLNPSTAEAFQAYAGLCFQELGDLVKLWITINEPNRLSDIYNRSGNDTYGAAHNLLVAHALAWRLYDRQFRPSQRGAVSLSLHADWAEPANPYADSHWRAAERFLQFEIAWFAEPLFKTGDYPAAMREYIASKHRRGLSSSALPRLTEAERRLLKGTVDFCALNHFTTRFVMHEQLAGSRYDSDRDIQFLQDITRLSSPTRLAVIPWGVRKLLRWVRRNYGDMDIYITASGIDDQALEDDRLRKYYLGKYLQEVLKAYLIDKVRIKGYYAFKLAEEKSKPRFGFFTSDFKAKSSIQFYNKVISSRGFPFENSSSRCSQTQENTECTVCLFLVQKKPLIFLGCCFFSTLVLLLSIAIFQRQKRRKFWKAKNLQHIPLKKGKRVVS
# [2] = molecular target: cell surface receptor composed of FGFR1c and co-receptor beta-Klotho (KLB) (human, UniProt P11362 22-822; Q86Z14 1-1044); assay: cell-based or functional assay
# Target sequence in this assay (P11362 22-822, chain 1 of 2): as the sequence (P11362 22-822, chain 1 of 2) above
# Target sequence in this assay (Q86Z14 whole entry, chain 2 of 2): as the sequence (Q86Z14 whole entry, chain 2 of 2) above
# human beta-Klotho (KLB) [3] = molecular target: T1, human beta-Klotho (KLB); assay: BLI off-rate screen, supernatant;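 note: expression supernatants tested at 25 µg/mL, dissociation followed for 1800 s in D-PBS with 0.1% BSA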
# [4] = molecular target: cell surface receptor composed of FGFR1c and co-receptor beta-Klotho (KLB) (human, UniProt P11362 22-822; Q86Z14 1-1044); assay: cell-based or functional assay; remark: listed apart in the source
# Target sequence in this assay (P11362 22-822, chain 1 of 2): as the sequence (P11362 22-822, chain 1 of 2) above
# Target sequence in this assay (Q86Z14 whole entry, chain 2 of 2): as the sequence (Q86Z14 whole entry, chain 2 of 2) above
# human beta-Klotho (KLB) [5] = molecular target: T2, human beta-Klotho (KLB); assay: BLI off-rate screening (Octet), crude supernatant;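 note: supernatants tested at 25 µg/mL, dissociation from biosensors recorded in D-PBS with 0.1% BSA over 1800 s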
# Throughout, for Mean E max, Luciferase reporter gene assay: reference of the scale not given here.
Binder,"Mean E max, Luciferase gene reporter assay [1]","Mean E max, Luciferase reporter gene assay [2]","Mean EC50, Luciferase reporter gene assay [2]",koff (human beta-Klotho (KLB) [3]),"Mean E max, Luciferase reporter gene assay [4]","Mean EC50, Luciferase reporter gene assay [4]",koff (human beta-Klotho (KLB) [5]),"Mean EC50, Luciferase gene reporter assay [1]"
B1,37%,,,,,,,
B2,,92%,123 pM,3.3e-05 s⁻¹,,,,
B3,,,,,108%,114 pM,7.2e-05 s⁻¹,
B4,,96%,162 pM,3.7e-05 s⁻¹,,,,
B5,,,,,116%,105 pM,3.3e-05 s⁻¹,
B6,,96%,160 pM,6.9e-05 s⁻¹,,,,
B7,,100%,120 pM,3.8e-05 s⁻¹,,,,
B8,,92%,114 pM,9.6e-05 s⁻¹,,,,
B9,,103%,146 pM,5.1e-05 s⁻¹,,,,
B10,,,,,100%,105 pM,6.4e-05 s⁻¹,
B11,,,,,102%,161 pM,1.6e-05 s⁻¹,
B12,,,,,107%,94 pM,3.9e-05 s⁻¹,
B13,,,,,99%,142 pM,0.0001 s⁻¹,
B14,,,,,89%,131 pM,7.3e-05 s⁻¹,
B15,,,,,99%,99 pM,0.00011 s⁻¹,
B16,,,,,110%,129 pM,5.9e-05 s⁻¹,
B17,,,,,110%,120 pM,1.7e-05 s⁻¹,
B18,,,,,112%,111 pM,2.1e-05 s⁻¹,
B19,,,,,95%,206 pM,0.00033 s⁻¹,
B20,,,,,111%,121 pM,3.7e-05 s⁻¹,
B21,,108%,136 pM,7.3e-05 s⁻¹,,,,
B22,,94%,138 pM,4.8e-05 s⁻¹,,,,
B23,,96%,118 pM,3.6e-05 s⁻¹,,,,
B24,104%,,,,,,,185 pM
B25,,,,,103%,214 pM,3.3e-05 s⁻¹,
B26,,,,,45%,3020 pM,2.1e-05 s⁻¹,
B27,,92%,107 pM,9.7e-05 s⁻¹,,,,
B28,,99%,123 pM,1e-07 s⁻¹,,,,
B29,,110%,163 pM,2.4e-05 s⁻¹,,,,
B30,,114%,132 pM,1.6e-05 s⁻¹,,,,
